Test results taken from patent US9062100B2, “Anti-human TROP-2 antibody having anti-tumor activity in vivo” (LIVTECH, INC., dated 2015).

Legend:
human TROP-2 (hTROP-2) [1] = target: T1, human TROP-2 (hTROP-2) (human); experiment: FACS on PK-59 cells
T1 chain: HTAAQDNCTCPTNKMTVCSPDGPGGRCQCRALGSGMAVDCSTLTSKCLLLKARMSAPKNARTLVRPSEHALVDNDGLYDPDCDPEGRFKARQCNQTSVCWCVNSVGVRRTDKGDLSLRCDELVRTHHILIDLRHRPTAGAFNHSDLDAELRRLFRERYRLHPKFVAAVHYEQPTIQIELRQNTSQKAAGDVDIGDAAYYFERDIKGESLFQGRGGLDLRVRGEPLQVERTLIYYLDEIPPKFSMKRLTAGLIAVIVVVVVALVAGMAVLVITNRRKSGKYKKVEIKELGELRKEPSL

human TROP-2 (hTROP-2) [2] = target: T1, human TROP-2 (hTROP-2); experiment: FACS on BxPC-3 cells
Table 11 peptide No. 1 = target: T2, Table 11 peptide No. 1 (human, not fully specified); experiment: PEPSCAN CLIPS peptide ELISA
T2 peptide: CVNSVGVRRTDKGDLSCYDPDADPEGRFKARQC

Table 11 peptide No. 2 = target: T3, Table 11 peptide No. 2 (human); experiment: PEPSCAN CLIPS peptide ELISA
T3 peptide: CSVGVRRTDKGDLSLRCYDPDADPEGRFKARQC

Table 11 peptide No. 3 = target: T4, Table 11 peptide No. 3 (human); experiment: PEPSCAN CLIPS peptide ELISA
T4 peptide: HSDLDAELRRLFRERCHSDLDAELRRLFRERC

Table 11 peptide No. 4 = target: T5, Table 11 peptide No. 4 (human); experiment: PEPSCAN CLIPS peptide ELISA
T5 peptide: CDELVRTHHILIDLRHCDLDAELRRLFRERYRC

Table 11 peptide No. 6 = target: T6, Table 11 peptide No. 6 (human); experiment: PEPSCAN CLIPS peptide ELISA
T6 peptide: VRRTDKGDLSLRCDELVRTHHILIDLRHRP

Table 11 peptide No. 7 = target: T7, Table 11 peptide No. 7 (human); experiment: PEPSCAN CLIPS peptide ELISA
T7 peptide: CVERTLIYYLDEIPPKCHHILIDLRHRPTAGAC

Table 11 peptide No. 8 = target: T8, Table 11 peptide No. 8 (human); experiment: PEPSCAN CLIPS peptide ELISA
T8 peptide: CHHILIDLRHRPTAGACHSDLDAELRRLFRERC

Table 11 peptide No. 9 = target: T9, Table 11 peptide No. 9 (human); experiment: PEPSCAN CLIPS peptide ELISA
T9 peptide: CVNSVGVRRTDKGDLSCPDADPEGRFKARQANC

Table 11 peptide No. 10 = target: T10, Table 11 peptide No. 10 (human); experiment: PEPSCAN CLIPS peptide ELISA
T10 peptide: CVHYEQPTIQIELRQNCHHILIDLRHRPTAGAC

Table 11 peptide No. 11 = target: T11, Table 11 peptide No. 11 (human); experiment: PEPSCAN CLIPS peptide ELISA
T11 peptide: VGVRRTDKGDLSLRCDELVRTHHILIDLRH

Table 11 peptide No. 12 = target: T12, Table 11 peptide No. 12 (human); experiment: PEPSCAN CLIPS peptide ELISA
T12 peptide: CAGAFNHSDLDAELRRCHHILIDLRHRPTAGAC

Table 11 peptide No. 13 = target: T13, Table 11 peptide No. 13 (human); experiment: PEPSCAN CLIPS peptide ELISA
T13 peptide: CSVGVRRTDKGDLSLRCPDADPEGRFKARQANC

Table 11 peptide No. 14 = target: T14, Table 11 peptide No. 14 (human); experiment: PEPSCAN CLIPS peptide ELISA
T14 peptide: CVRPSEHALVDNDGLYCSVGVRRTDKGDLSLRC

Table 11 peptide No. 15 = target: T15, Table 11 peptide No. 15 (human); experiment: PEPSCAN CLIPS peptide ELISA
T15 peptide: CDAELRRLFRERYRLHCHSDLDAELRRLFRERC

Table 11 peptide No. 16 = Table 11 peptide No. 16 (human); experiment: PEPSCAN CLIPS peptide ELISA
Table 11 peptide No. 17 = target: T16, Table 11 peptide No. 17 (human); experiment: PEPSCAN CLIPS peptide ELISA
T16 peptide: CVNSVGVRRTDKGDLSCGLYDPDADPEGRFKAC

Table 11 peptide No. 18 = target: T17, Table 11 peptide No. 18 (human); experiment: PEPSCAN CLIPS peptide ELISA
T17 peptide: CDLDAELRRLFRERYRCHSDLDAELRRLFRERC

Table 11 peptide No. 19 = target: T18, Table 11 peptide No. 19 (human); experiment: PEPSCAN CLIPS peptide ELISA
T18 peptide: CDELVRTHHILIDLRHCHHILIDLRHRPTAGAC

Table 11 peptide No. 20 = target: T19, Table 11 peptide No. 20 (human); experiment: PEPSCAN CLIPS peptide ELISA
T19 peptide: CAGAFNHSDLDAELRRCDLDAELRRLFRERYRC

Table 11 peptide No. 21 = target: T20, Table 11 peptide No. 21 (human); experiment: PEPSCAN CLIPS peptide ELISA
T20 peptide: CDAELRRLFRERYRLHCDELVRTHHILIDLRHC

Table 11 peptide No. 22 = target: T21, Table 11 peptide No. 22 (human); experiment: PEPSCAN CLIPS peptide ELISA
T21 peptide: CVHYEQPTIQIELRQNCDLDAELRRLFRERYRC

Table 11 peptide No. 23 = target: T22, Table 11 peptide No. 23 (human); experiment: PEPSCAN CLIPS peptide ELISA
T22 peptide: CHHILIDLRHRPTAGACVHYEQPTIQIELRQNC

Table 11 peptide No. 24 = Table 11 peptide No. 24 (human); experiment: PEPSCAN CLIPS peptide ELISA
Table 11 peptide No. 25 = target: T23, Table 11 peptide No. 25 (human); experiment: PEPSCAN CLIPS peptide ELISA
T23 peptide: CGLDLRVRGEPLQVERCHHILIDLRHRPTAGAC

Table 11 peptide No. 26 = target: T24, Table 11 peptide No. 26 (human); experiment: PEPSCAN CLIPS peptide ELISA
T24 peptide: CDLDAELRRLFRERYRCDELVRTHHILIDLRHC

[3] = target: T25, recombinant protein of the extracellular region of hTROP-2 (human); experiment: ELISA of free antibody after equilibration with antigen in solution
T25 sequence: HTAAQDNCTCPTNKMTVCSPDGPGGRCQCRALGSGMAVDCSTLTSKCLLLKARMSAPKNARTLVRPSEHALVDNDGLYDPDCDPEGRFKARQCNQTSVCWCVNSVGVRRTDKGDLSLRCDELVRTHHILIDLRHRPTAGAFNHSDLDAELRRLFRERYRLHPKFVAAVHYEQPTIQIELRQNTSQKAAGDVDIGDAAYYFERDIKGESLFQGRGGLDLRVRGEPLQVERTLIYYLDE

Chain of Table 11 peptide No. 16 (human) (peptide, as listed by the source): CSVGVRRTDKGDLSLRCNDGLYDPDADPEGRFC
Chain of Table 11 peptide No. 24 (human) (peptide, as listed by the source): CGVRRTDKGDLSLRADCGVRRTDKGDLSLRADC

mean fluorescence intensity, times that with PE-labeled anti-mouse IgG only (human TROP-2 (hTROP-2) [1]): 59 times
mean fluorescence intensity, times that with PE-labeled anti-mouse IgG only (human TROP-2 (hTROP-2) [2]): 25 times
binding of T6-16 (Table 11 peptide No. 1): 1070
binding of T6-16 (Table 11 peptide No. 2): 786
binding of T6-16 (Table 11 peptide No. 3): 714
binding of T6-16 (Table 11 peptide No. 4): 713
binding of T6-16 (Table 11 peptide No. 6): 670
binding of T6-16 (Table 11 peptide No. 7): 626
binding of T6-16 (Table 11 peptide No. 8): 620
binding of T6-16 (Table 11 peptide No. 9): 611
binding of T6-16 (Table 11 peptide No. 10): 602
binding of T6-16 (Table 11 peptide No. 11): 601
binding of T6-16 (Table 11 peptide No. 12): 592
binding of T6-16 (Table 11 peptide No. 13): 585
binding of T6-16 (Table 11 peptide No. 14): 573
binding of T6-16 (Table 11 peptide No. 15): 566
binding of T6-16 (Table 11 peptide No. 16): 559
binding of T6-16 (Table 11 peptide No. 17): 553
binding of T6-16 (Table 11 peptide No. 18): 534
binding of T6-16 (Table 11 peptide No. 19): 534
binding of T6-16 (Table 11 peptide No. 20): 529
binding of T6-16 (Table 11 peptide No. 21): 527
binding of T6-16 (Table 11 peptide No. 22): 526
binding of T6-16 (Table 11 peptide No. 23): 524
binding of T6-16 (Table 11 peptide No. 24): 524
binding of T6-16 (Table 11 peptide No. 25): 521
binding of T6-16 (Table 11 peptide No. 26): 516
Kd [3]: 4.3 pM
B1: anti-hTROP-2 monoclonal antibody T6-16 (antibody, V domains shown)
VH: EVQLQQSGPELVKPGASVKISCKASGYTFTDYNMHWVKQSHGKNLEWIGYIYPYNGGTGYNQRFKSRATMTVDKSSSTAYMELRSLTSDDSAVYYCAREDYGSSPSYAMDYWGQGTSVIVSS
VL: DVVMTQTPLSLPVSLGDQASISCRSSQSLVHGNGNTYLHWYLQKPGQSPKLLIYKVSNRFSGVPDRFSGSGSGTDFTLKISRVEAEDLGVYFCSQTTHVPTFGSGTKLEIK
